Source: patent WO2025037032A1

Biological target: coagulation Factor VIII (human) (UniProt P00451)
Experiment: VWF:FVIIIB enzyme immunoassay; VWF of human plasma captured with rabbit anti-human VWF F(ab')2, bound FVIII detected; plasma pre-incubated 17 h at 37°C with 200 or 600 nM one-arm anti-VWF CK domain antibodies

Sequence of UniProt P00451 (P00451 20-2351): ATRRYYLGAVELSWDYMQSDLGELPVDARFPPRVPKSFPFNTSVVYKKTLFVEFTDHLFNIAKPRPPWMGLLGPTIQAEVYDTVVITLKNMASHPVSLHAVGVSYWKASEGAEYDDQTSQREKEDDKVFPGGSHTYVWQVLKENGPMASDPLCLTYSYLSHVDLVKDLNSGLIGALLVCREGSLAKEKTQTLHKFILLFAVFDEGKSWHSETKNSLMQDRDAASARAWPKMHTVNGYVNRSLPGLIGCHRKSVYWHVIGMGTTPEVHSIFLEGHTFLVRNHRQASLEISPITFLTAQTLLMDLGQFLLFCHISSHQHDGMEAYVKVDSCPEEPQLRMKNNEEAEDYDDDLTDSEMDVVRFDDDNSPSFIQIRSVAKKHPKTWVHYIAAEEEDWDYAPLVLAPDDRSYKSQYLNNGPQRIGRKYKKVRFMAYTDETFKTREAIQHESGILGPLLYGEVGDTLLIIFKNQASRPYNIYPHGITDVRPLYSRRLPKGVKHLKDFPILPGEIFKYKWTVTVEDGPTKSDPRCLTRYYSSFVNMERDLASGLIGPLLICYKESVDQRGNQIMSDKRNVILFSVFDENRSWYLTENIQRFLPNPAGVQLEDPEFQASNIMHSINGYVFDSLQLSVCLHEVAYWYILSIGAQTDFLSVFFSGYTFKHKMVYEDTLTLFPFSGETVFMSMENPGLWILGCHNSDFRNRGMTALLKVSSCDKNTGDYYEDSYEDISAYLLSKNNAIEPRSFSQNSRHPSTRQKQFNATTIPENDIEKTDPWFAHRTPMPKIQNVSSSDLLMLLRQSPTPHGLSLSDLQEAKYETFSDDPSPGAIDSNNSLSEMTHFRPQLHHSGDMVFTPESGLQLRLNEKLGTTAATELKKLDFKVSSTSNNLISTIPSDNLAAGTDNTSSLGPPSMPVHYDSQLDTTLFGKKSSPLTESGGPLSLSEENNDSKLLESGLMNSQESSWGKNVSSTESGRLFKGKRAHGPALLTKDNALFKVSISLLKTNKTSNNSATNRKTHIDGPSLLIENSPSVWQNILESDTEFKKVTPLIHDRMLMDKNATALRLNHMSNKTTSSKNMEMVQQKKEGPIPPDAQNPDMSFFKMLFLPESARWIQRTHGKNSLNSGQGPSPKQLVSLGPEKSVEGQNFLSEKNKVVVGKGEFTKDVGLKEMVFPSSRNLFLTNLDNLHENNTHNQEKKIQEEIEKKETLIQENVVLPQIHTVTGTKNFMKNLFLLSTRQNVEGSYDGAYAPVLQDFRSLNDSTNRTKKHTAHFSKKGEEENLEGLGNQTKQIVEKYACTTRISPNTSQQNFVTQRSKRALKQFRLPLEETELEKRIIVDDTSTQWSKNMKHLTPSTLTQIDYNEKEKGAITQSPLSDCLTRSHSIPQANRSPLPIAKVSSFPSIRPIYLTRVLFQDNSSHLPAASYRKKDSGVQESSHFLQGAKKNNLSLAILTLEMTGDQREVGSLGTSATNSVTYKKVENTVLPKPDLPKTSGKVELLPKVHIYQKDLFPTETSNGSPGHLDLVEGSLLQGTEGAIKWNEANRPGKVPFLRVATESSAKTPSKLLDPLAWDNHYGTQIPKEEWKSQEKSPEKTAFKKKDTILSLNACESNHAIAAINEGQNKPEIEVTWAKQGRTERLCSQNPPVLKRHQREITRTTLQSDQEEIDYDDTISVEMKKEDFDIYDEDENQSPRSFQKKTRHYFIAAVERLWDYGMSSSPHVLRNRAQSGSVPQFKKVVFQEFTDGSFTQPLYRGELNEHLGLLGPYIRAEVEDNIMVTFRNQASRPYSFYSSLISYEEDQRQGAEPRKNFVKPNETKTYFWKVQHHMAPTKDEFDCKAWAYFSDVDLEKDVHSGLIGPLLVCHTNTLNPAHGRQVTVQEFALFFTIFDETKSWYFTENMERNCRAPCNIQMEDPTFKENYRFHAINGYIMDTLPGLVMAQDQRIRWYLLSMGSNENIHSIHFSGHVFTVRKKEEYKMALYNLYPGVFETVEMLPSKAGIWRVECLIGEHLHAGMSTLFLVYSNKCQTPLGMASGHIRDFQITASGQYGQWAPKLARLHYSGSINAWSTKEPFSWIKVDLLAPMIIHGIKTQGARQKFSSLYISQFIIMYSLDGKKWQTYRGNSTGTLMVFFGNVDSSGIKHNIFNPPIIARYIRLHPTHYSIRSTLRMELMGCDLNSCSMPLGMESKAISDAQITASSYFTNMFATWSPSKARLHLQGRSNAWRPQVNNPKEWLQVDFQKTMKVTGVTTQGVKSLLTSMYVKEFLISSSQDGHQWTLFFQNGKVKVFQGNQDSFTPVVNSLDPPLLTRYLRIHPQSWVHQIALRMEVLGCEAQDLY

human plasma-derived VWF (from UniProt P04275 764-2813)
mean level of VWF:FVIII relative to untreated donor-matched plasma: > 80%
